Source: patent publication US20200190159A1

Assays:
[1] = target: recombinant tetranectin (TN) (human) (UniProt P05452); assay: SPR (BIAcore), TN immobilized on CM5 chip, HMGB1 as analyte at various concentrations; apparent Kd
[2] = target: recombinant tetranectin (TN) (human) (UniProt P05452); assay: BIAcore SPR; recombinant TN immobilized on the sensor chip, HMGB1 as analyte at 31, 62, 125, 250, 500 and 1000 nM

Chain of recombinant tetranectin (TN) (human) (P05452 22-202): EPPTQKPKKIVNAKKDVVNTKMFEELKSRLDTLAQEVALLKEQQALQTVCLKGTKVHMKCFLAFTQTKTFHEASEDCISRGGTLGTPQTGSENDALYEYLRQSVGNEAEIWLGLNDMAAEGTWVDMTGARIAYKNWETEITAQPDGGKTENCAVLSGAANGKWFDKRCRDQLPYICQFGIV

high mobility group box-1 (HMGB1) protein
Kd [1]: 0.57 µM
Kd [2]: 0.52 µM
